The assay concerns the target T1, RPtag small tight peptide (Nd2,P5A,E18A) with a C-terminal GGC sequence (C-terminal Cys reacted with maleimide-activated plate (immobilised)).
T1 construct: also called RPtag small peptide; bait peptide
T1 peptide: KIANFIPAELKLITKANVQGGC
As to the kind of experiment: capture ELISA, peptide immobilised on maleimide plate. On the procedure:
White Pierce™ Maleimide Activated Plates were washed 4× with 200 μL 50 mM phosphate pH 7.4, 150 mM NaCl, and reacted with 100 μL of RPtag small peptide that binds with high affinity to RPtag large. Specifically, RPtag small tight peptide (Nd2,P5A,E18A; […]; SEQ ID NO:5) with a C-terminal GGC sequence ([…] (SEQ ID NO:5)+GGC) dissolved in 50 mM phosphate pH 7.4, 150 mM NaCl, 10 mM EDTA overnight at room temperature as bait. Plates were then washed 4× in 50 mM phosphate pH 7.4, 150 mM NaCl, and blocked for 1 hour at room temperature with 10 mM L-Cys in the same buffer, washed 4× as before, and blocked for 1 hour at room temperature with 50 mM phosphate pH 7.4, 150 mM NaCl, 1% BSA, 0.05% Tween20 (blocking buffer).
Plates were washed 4× as before, serum samples were diluted 1:100 in blocking buffer, and then serum was incubated with the baited plates for 2 hours at room temperature. […]
To test for intact N-termini, wells were then washed 4× as before, and incubated with a 1:10,000 dilution of HRP-conjugated mouse anti-FLAG antibody (M2 clone, 1 mg/mL stock) from Sigma-Aldrich for 1 hour at room temperature. Samples were then washed 4× as before, and assayed using SuperSignal™ ELISA Femto Substrate measured using a Molecular Devices SpectraMax i3 plate reader in luminescence mode. […]
On the technique in general: An ELISA detects its analyte on a solid surface through an enzyme-linked reagent.

B1: RPtag large-B12 construct (RPtag large with 3xFLAG tag, proline and Cys residue, B12-maleimide conjugated, 8xHis tag removed by TEV protease) (designed binder)
chain: KTIGLVISTLNNPFFVTLKNGAEEKAKELGYKIIVEDSQNDSSKELSNVEDLIQQKVDVLLINPVDSDAVVTAIKEANSKNIPVITIDRSANGGDVVSHIASDNVKGGEMAAEFIAKALKGKGNVVELEGIPGASAARDRGKGFDEAIAKYPDIKIVAKQAADFDRSKGLSVMENILQAQPKIDAVFAQNDEMALGAIKAIEAANRQGIIVVGFDGTEDALKAIKEGKMAATIAQQPALMGSLGVEMADKYLK
modifications: B12-maleimide covalently attached at the added Cys residue (47% labeling efficiency; the preparation is a mixture of free RPtag large and B12-RPtag large conjugate); position of the Cys not stated
notes: Construct expressed with N-terminal 8xHis tag and TEV site, both removed by TEV protease before use; In the assay it stood either in mouse serum after oral gavage or as a standard of known concentration; Formulated with 1 M D-ribose for dosing; also called B12-RPtag large conjugate; B12-RPtag conjugate; not shown: N-terminal leader left after TEV cleavage: 3xFLAG tag, a proline after it and a Cys …
In the case of B1, the binding result was “binds”.

For the origin of these results see patent US12030916 (AUCTUS BIOLOGICS, dated 2024).
